Experimental data: the supplement of paper PMC5998384

Assays:
[1] = tested on: HeLa Kyoto; assay: thermal stability score vs G1/S (z-score of summed log2 fold changes over temperatures); higher = more thermally stable than in G1/S
[2] = tested on: HeLa Kyoto; assay: melting temperature (median over replicates), in situ; higher = more thermally stable; conditions: cell cycle stage: G1/S
[3] = cell cycle stage: early G1 (4.5 h after nocodazole release)
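For melting temperature (median over replicates), in situ in this document: HeLa Kyoto cells synchronized by double thymidine or nocodazole block, proteins quantified by TMT10plex mass spectrometry, three independent biological replicates.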
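For thermal stability score vs G1/S (z-score of summed log2 fold changes over temperatures) in this document: synchronized HeLa Kyoto cells, proteins quantified by TMT10plex mass spectrometry, three biological replicates, mitosis taken 0.5 h after nocodazole release, G1/S directly after double thymidine block.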

Chain of LDHAL6A (chain, as listed by the source): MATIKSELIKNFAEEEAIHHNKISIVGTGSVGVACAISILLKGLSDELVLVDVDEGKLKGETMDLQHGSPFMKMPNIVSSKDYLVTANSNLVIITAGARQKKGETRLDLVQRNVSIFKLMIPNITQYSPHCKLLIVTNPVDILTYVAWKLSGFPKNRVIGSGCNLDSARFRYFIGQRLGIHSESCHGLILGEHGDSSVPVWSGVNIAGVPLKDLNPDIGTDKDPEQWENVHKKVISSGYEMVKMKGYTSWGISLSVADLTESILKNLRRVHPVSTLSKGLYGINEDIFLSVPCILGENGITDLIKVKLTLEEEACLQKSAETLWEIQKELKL

| Substance | thermal stability score [1, 3] | thermal stability score ([1]; cell cycle stage: mitosis) | melting temperature [2] [°C] |
| --- | --- | --- | --- |
| LDHAL6A | -1.33 | -1.23 | 61.6 |
| MCFSFIMPPAMADILDIWAVDSQIASDGSIPVDFLLPTGIYIQLEVPREATISYIKQMLWKQVHNYPMFNLLMDIDSYMFACVNQTAVYEELEDETRRLCDVRPFLPVLKLVTRSCDPGEKLDSKIGVLIGKGLHEFDSLKDPEVNEFRRKMRKFSEEKILSLVGLSWMDWLKQTYPPEHEPSIPENLEDKLYGGKLIVAVHFENCQDVFSFQVSPNMNPIKVNELAIQKRLTIHGKEDEVSPYDYVLQVSGRVEYVFGDHPLIQFQYIRNCVMNRALPHFILVECCKIKKMYEQEMIAIEAAINRNSSNLPLPLPPKKTRIISHVWENNNPFQIVLVKGNKLNTEETVKVHVRAGLFHGTELLCKTIVSSEVSGKNDHIWNEPLEFDINICDLPRMARLCFAVYAVLDKVKTKKSTKTINPSKYQTIRKAGKVHYPVAWVNTMVFDFKGQLRTGDIILHSWSSFPDELEEMLNPMGTVQTNPYTENATALHVKFPENKKQPYYYPPFDKIIEKAAEIASSDSANVSSRGGKKFLPVLKEILDRDPLSQLCENEMDLIWTLRQDCREIFPQSLPKLLLSIKWNKLEDVAQLQALLQIWPKLPPREALELLDFNYPDQYVREYAVGCLRQMSDEELSQYLLQLVQVLKYEPFLDCALSRFLLERALGNRRIGQFLFWHLRSEVHIPAVSVQFGVILEAYCRGSVGHMKVLSKQVEALNKLKTLNSLIKLNAVKLNRAKGKEAMHTCLKQSAYREALSDLQSPLNPCVILSELYVEKCKYMDSKMKPLWLVYNNKVFGEDSVGVIFKNGDDLRQDMLTLQMLRLMDLLWKEAGLDLRMLPYGCLATGDRSGLIEVVSTSETIADIQLNSSNVAAAAAFNKDALLNWLKEYNSGDDLDRAIEEFTLSCAGYCVASYVLGIGDRHSDNIMVKKTGQLFHIDFGHILGNFKSKFGIKRERVPFILTYDFIHVIQQGKTGNTEKFGRFRQCCEDAYLILRRHGNLFITLFALMLTAGLPELTSVKDIQYLKDSLALGKSEEEALKQFKQKFDEALRESWTTKVNWMAHTVRKDYRS [PIK3CB] | 0.304 | 0.592 |  |
| MEINTKLLISVTCISFFTFQLLFYFVSYWFSAKVSPGFNSLSFKKKIEWNSRVVSTCHSLVVGIFGLYIFLFDEATKADPLWGGPSLANVNIAIASGYLISDLSIIILYWKVIGDKFFIMHHCASLYAYYLVLKNGVLAYIGNFRLLAELSSPFVNQRWFFEALKYPKFSKAIVINGILMTVVFFIVRIASMLPHYGFMYSVYGTEPYIRLGVLIQLSWVISCVVLDVMNVMWMIKISKGCIKVISHIRQEKAKNSLQNGKLD [TMEM56] | 0.000211 | -0.867 |  |
| MFPREKTWNISFAGCGFLGVYYVGVASCLREHAPFLVANATHIYGASAGALTATALVTGVCLGEAGAKFIEVSKEARKRFLGPLHPSFNLVKIIRSFLLKVLPADSHEHASGRLGISLTRVSDGENVIISHFNSKDELIQANVCSGFIPVYCGLIPPSLQGVRYVDGGISDNLPLYELKNTITVSPFSGESDICPQDSSTNIHELRVTNTSIQFNLRNLYRLSKALFPPEPLVLREMCKQGYRDGLRFLQRNGLLNRPNPLLALPPARPHGPEDKDQAVESAQAEDYSQLPGEDHILEHLPARLNEALLEACVEPTDLLTTLSNMLPVRLATAMMVPYTLPLESALSFTIRLLEWLPDVPEDIRWMKEQTGSICQYLVMRAKRKLGRHLPSRLPEQVELRRVQSLPSVPLSCAAYREALPGWMRNNLSLGDALAKWEECQRQLLLGLFCTNVAFPPEALRMRAPADPAPAPADPASPQHQLAGPAPLLSTPAPEARPVIGALGL [PNPLA2] | -0.911 | 1.32 |  |
| MGPEALSSLLLLLLVASGDADMKGHFDPAKCRYALGMQDRTIPDSDISASSSWSDSTAARHSRLESSDGDGAWCPAGSVFPKEEEYLQVDLQRLHLVALVGTQGRHAGGLGKEFSRSYRLRYSRDGRRWMGWKDRWGQEVISGNEDPEGVVLKDLGPPMVARLVRFYPRADRVMSVCLRVELYGCLWRDGLLSYTAPVGQTMYLSEAVYLNDSTYDGHTVGGLQYGGLGQLADGVVGLDDFRKSQELRVWPGYDYVGWSNHSFSSGYVEMEFEFDRLRAFQAMQVHCNNMHTLGARLPGGVECRFRRGPAMAWEGEPMRHNLGGNLGDPRARAVSVPLGGRVARFLQCRFLFAGPWLLFSEISFISDVVNNSSPALGGTFPPAPWWPPGPPPTNFSSLELEPRGQQPVAKAEGSPTAILIGCLVAIILLLLLIIALMLWRLHWRRLLSKAERRVLEEELTVHLSVPGDTILINNRPGPREPPPYQEPRPRGNPPHSAPCVPNGSALLLSNPAYRLLLATYARPPRGPGPPTPAWAKPTNTQAYSGDYMEPEKPGAPLLPPPPQNSVPHYAEADIVTLQGVTGGNTYAVPALPPGAVGDGPPRVDFPRSRLRFKEKLGEGQFGEVHLCEVDSPQDLVSLDFPLNVRKGHPLLVAVKILRPDATKNARNDFLKEVKIMSRLKDPNIIRLLGVCVQDDPLCMITDYMENGDLNQFLSAHQLEDKAAEGAPGDGQAAQGPTISYPMLLHVAAQIASGMRYLATLNFVHRDLATRNCLVGENFTIKIADFGMSRNLYAGDYYRVQGRAVLPIRWMAWECILMGKFTTASDVWAFGVTLWEVLMLCRAQPFGQLTDEQVIENAGEFFRDQGRQVYLSRPPACPQGLYELMLRCWSRESEQRPPFSQLHRFLAEDALNTV [DDR1] | 0.0856 | 0.38 |  |
| MGSQGSPVKSYDYLLKFLLVGDSDVGKGEILESLQDGAAESPYAYSNGIDYKTTTILLDGRRVKLELWDTSGQGRFCTIFRSYSRGAQGILLVYDITNRWSFDGIDRWIKEIDEHAPGVPRILVGNRLHLAFKRQVPTEQARAYAEKNCMTFFEVSPLCNFNVIESFTELSRIVLMRHGMEKIWRPNRVFSLQDLCCRAIVSCTPVHLIDKLPLPVTIKSHLKSFSMANGMNAVMMHGRSYSLASGAGGGGSKGNSLKRSKSIRPPQSPPQNCSRSNCKIS [RAB40C] | -0.589 | -0.612 |  |
| MLLLVTSLLLCELPHPAFLLIPEKSDLRTVAPASSLNVRFDSRTMNLSWDCQENTTFSKCFLTDKKNRVVEPRLSNNECSCTFREICLHEGVTFEVHVNTSQRGFQQKLLYPNSGREGTAAQNFSCFIYNADLMNCTWARGPTAPRDVQYFLYIRNSKRRREIRCPYYIQDSGTHVGCHLDNLSGLTSRNYFLVNGTSREIGIQFFDSLLDTKKIERFNPPSNVTVRCNTTHCLVRWKQPRTYQKLSYLDFQYQLDVHRKNTQPGTENLLINVSGDLENRYNFPSSEPRAKHSVKIRAADVRILNWSSWSEAIEFGSDDGNLGSVYIYVLLIVGTLVCGIVLGFLFKRFLRIQRLFPPVPQIKDKLNDNHEVEDEIIWEEFTPEEGKGYREEVLTVKEIT [CSF2RA] | -1.1 | -1.35 |  |
| MLRCGGRGLLLGLAVAAAAVMAARLMGWWGPRAGFRLFIPEELSRYRGGPGDPGLYLALLGRVYDVSSGRRHYEPGSHYSGFAGRDASRAFVTGDCSEAGLVDDVSDLSAAEMLTLHNWLSFYEKNYVCVGRVTGRFYGEDGLPTPALTQVEAAITRGLEANKLQLQEKQTFPPCNAEWSSARGSRLWCSQKSGGVSRDWIGVPRKLYKPGAKEPRCVCVRTTGPPSGQMPDNPPHRNRGDLDHPNLAEYTGCPPLAITCSFPL [CYB5D2] | 0.86 | -0.244 |  |
| MRVLVGGGTGFIGTALTQLLNARGHEVTLVSRKPGPGRITWDELAASGLPSCDAAVNLAGENILNPLRRWNETFQKEVIGSRLETTQLLAKAITKAPQPPKAWVLVTGVAYYQPSLTAEYDEDSPGGDFDFFSNLVTKWEAAARLPGDSTRQVVVRSGVVLGRGGGAMGHMLLPFRLGLGGPIGSGHQFFPWIHIGDLAGILTHALEANHVHGVLNGVAPSSATNAEFAQTLGAALGRRAFIPLPSAVVQAVFGRQRAIMLLEGQKVIPQRTLATGYQYSFPELGAALKEIVA [SDR39U1] | -0.328 | -0.0339 |  |
| MSEDEEKVKLRRLEPAIQKFIKIVIPTDLERLRKHQINIEKYQRCRIWDKLHEEHINAGRTVQQLRSNIREIEKLCLKVRKDDLVLLKRMIDPVKEEASAATAEFLQLHLESVEELKKQFNDEETLLQPPLTRSMTVGGAFHTTEAEASSQSLTQIYALPEIPQDQNAAESWETLEADLIELSQLVTDFSLLVNSQQEKIDSIADHVNSAAVNVEEGTKNLGKAAKYKLAALPVAGALIGGMVGGPIGLLAGFKVAGIAAALGGGVLGFTGGKLIQRKKQKMMEKLTSSCPDLPSQTDKKCS [STX17] | -0.17 | 0.13 |  |
| MSKMPAKKKSCFQITSVTTAQVATSITEDTESLDDPDESRTEDVSSEIFDVSRATDYGPEEVCERSSSEETLNNVGDAETPGTVSPNLLLDGQLAAAAAAPANGGGVVSARSVSGALASTLAAAATSAPAPGAPGGPQLAGSSAGPVTAAPSQPPTTCSSRFRVIKLDHGSGEPYRRGRWTCMEYYERDSDSSVLTRSGDCIRHSSTFDQTAERDSGLGATGGSVVVVVASMQGAHGPESGTDSSLTAVSQLPPSEKMSQPTPAQPQSFSVGQPQPPPPPVGGAVAQSSAPLPPFPGAATGPQPMMAAAQPSQPQGAGPGGQTLPPTNVTLAQPAMSLPPQPGPAVGAPAAQQPQQFAYPQPQIPPGHLLPVQPSGQSEYLQQHVAGLQPPSPAQPSSTGAAASPATAATLPVGTGQNASSVGAQLMGASSQPSEAMAPRTGPAQGGQVAPCQPTGVPPATVGGVVQPCLGPAGAGQPQSVPPPQMGGSGPLSAVPGGPHAVVPGVPNVPAAVPAPSVPSVSTTSVTMPNVPAPLAQSQQLSSHTPVSRSSSIIQHVGLPLAPGTHSAPTSLPQSDLSQFQTQTQPLVGQVDDTRRKSEPLPQPPLSLIAENKPVVKPPVADSLANPLQLTPMNSLATSVFSIAIPVDGDEDRNPSTAFYQAFHLNTLKESKSLWDSASGGGVVAIDNKIEQAMDLVKSHLMYAVREEVEVLKEQIKELVERNSLLERENALLKSLSSNDQLSQLPTQQANPGSTSQQQAVIAQPPQPTQPPQQPNVSSA [TSC22D2] | 0.461 | 0.468 |  |
| MTGEKIRSLRRDHKPSKEEGDLLEPGDEEAAAALGGTFTRSRIGKGGKACHKIFSNHHHRLQLKAAPASSNPPGAPALPLHNSSVTANSQSPALLAGTNPVAVVADGGSCPAHYPVHECVFKGDVRRLSSLIRTHNIGQKDNHGNTPLHLAVMLGNKECAHLLLAHNAPVKVKNAQGWSPLAEAISYGDRQMITALLRKLKQQSRESVEEKRPRLLKALKELGDFYLELHWDFQSWVPLLSRILPSDACKIYKQGINIRLDTTLIDFTDMKCQRGDLSFIFNGDAAPSESFVVLDNEQKVYQRIHHEESEMETEEEVDILMSSDIYSATLSTKSISFTRAQTGWLFREDKTERVGNFLADFYLVNGLVLESRKRREHLSEEDILRNKAIMESLSKGGNIMEQNFEPIRRQSLTPPPQNTITWEEYISAENGKAPHLGRELVCKESKKTFKATIAMSQEFPLGIELLLNVLEVVAPFKHFNKLREFVQMKLPPGFPVKLDIPVFPTITATVTFQEFRYDEFDGSIFTIPDDYKEDPSRFPDL [ANKRD13C] | -0.894 | -0.663 |  |
| MWAFSELPMPLLINLIVSLLGFVATVTLIPAFRGHFIAARLCGQDLNKTSRQQIPESQGVISGAVFLIILFCFIPFPFLNCFVKEQCKAFPHHEFVALIGALLAICCMIFLGFADDVLNLRWRHKLLLPTAASLPLLMVYFTNFGNTTIVVPKPFRPILGLHLDLGILYYVYMGLLAVFCTNAINILAGINGLEAGQSLVISASIIVFNLVELEGDCRDDHVFSLYFMIPFFFTTLGLLYHNWYPSRVFVGDTFCYFAGMTFAVVGILGHFSKTMLLFFMPQVFNFLYSLPQLLHIIPCPRHRIPRLNIKTGKLEMSYSKFKTKSLSFLGTFILKVAESLQLVTVHQSETEDGEFTECNNMTLINLLLKVLGPIHERNLTLLLLLLQILGSAITFSIRYQLVRLFYDV [DPAGT1] | -0.912 | -2.08 |  |
